Two molecules from publication PMC8152475 (Biomedicines, 2021) can be followed below.

One assay addresses T1, TBK1 (Homo sapiens, UniProt Q9UHD2).
T1 sequence (Q9UHD2 1-729): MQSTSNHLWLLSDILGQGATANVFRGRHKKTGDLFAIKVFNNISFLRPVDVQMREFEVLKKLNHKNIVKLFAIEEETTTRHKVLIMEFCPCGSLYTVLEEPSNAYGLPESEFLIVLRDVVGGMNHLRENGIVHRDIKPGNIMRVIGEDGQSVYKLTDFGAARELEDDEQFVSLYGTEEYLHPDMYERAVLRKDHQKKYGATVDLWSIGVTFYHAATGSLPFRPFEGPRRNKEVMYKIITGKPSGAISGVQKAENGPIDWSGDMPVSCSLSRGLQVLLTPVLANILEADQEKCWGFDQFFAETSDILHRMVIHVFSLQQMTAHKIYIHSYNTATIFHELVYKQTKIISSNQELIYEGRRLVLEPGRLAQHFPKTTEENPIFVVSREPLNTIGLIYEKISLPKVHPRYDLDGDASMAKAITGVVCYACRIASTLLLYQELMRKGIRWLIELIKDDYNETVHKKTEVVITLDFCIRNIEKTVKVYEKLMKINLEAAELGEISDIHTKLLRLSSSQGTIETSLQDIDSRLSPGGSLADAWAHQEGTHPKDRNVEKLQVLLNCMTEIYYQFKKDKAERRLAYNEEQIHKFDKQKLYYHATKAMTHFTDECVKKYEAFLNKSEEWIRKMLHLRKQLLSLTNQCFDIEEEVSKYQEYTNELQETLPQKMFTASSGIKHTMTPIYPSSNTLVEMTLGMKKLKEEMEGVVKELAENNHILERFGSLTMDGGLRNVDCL
Format: binding.

The test system of the next assay is p47phox. In kind it is binding.

B1: MPT64: secretory immunodominant antigen of MTB, located in the RD2 region (protein)
chain: APKTYCEELKGTDTGQACQIQMSDPAYNINISLPSYYPDQKSLENYIAQTRDKFLSAATSSTPREAPYELNITSATYQSAIPPRGTQAVVLKVYQNAGGTHPTTTYKAFDWDQAYRKPITYDTLWQADTDPLPVVFPIVQGELSKQTGQQVSIAPNAGLDPVNYQNFAVTNDGVIFFFNPGELLPEAAGPTQVLVPRSAIDSMLA
As to B1, the “domain of TBK1 required for binding” value with TBK1 is “The kinase domain (1–301) in TBK1 and HK2 domain in HK2 were found to be essential for their interaction with MPT64”.

B2: MPT63: secretory immunodominant antigen of MTB (protein)
chain: AYPITGKLGSELTMTDTVGQVVLGWKVSDLKSSTAVIPGYPVAGQVWEATATVNAIRGSVTPAVSQFNARTADGINYRVLWQAAGPDTISGATIPQGEQSTGKIYFDVTGPSPTIVAMNNGMEDLLIWEP
Turning to B2, the “domain of TBK1 required for binding” value in the assay with TBK1 is listed as “the kinase domain in TBK1 was essential to bind MPT63”. Also, the “domain of p47phox required for binding” value in the assay with p47phox was “the PX domain in p47phox was important for the interaction with MPT63”.
